According to IntAct's records for PubMed 21763699:

B1: Caskin-1 (Homo sapiens), Q8WXD9 (parent)
chain: MGKEQELVQAVKAEDVGTAQRLLQRPRPGKAKLLGSTKKINVNFQDPDGFSALHHAALNGNTELISLLLEAQAAVDIKDNKGMRPLHYAAWQGRKEPMKLVLKAGSAVNIPSDEGHIPLHLAAQHGHYDVSEMLLQHQSNPCMVDNSGKTPLDLACEFGRVGVVQLLLSSNMCAALLEPRPGDATDPNGTSPLHLAAKNGHIDIIRLLLQAGIDINRQTKSGTALHEAALCGKTEVVRLLLDSGINAHVRNTYSQTALDIVHQFTTSQASREIKQLLREASAALQVRATKDYCNNYDLTSLNVKAGDIITVLEQHPDGRWKGCIHDNRTGNDRVGYFPSSLGEAIVKRAGSRAGTEPSLPQGSSSSGPSAPPEEIWVLRKPFAGGDRSGSISGMAGGRGSGGHALHAGSEGVKLLATVLSQKSVSESGPGDSPAKPPEGSAGVARSQPPVAHAGQVYGEQPPKKLEPASEGKSSEAVSQWLTAFQLQLYAPNFISAGYDLPTISRMTPEDLTAIGVTKPGHRKKIAAEISGLSIPDWLPEHKPANLAVWLSMIGLAQYYKVLVDNGYENIDFITDITWEDLQEIGITKLGHQKKLMLAVRKLAELQKAEYAKYEGGPLRRKAPQSLEVMAIESPPPPEPTPADCQSPKMTTFQDSELSDELQAAMTGPAEVGPTTEKPSSHLPPTPRATTRQDSSLGGRARHMSSSQELLGDGPPGPSSPMSRSQEYLLDEGPAPGTPPREARPGRHGHSIKRASVPPVPGKPRQVLPPGTSHFTPPQTPTKTRPGSPQALGGPHGPAPATAKVKPTPQLLPPTERPMSPRSLPQSPTHRGFAYVLPQPVEGEVGPAAPGPAPPPVPTAVPTLCLPPEADAEPGRPKKRAHSLNRYAASDSEPERDELLVPAAAGPYATVQRRVGRSHSVRAPAGADKNVNRSQSFAVRPRKKGPPPPPPKRSSSALASANLADEPVPDAEPEDGLLGVRAQCRRASDLAGSVDTGSAGSVKSIAAMLELSSIGGGGRAARRPPEGHPTPRPASPEPGRVATVLASVKHKEAIGPGGEVVNRRRTLSGPVTGLLATARRGPGESADPGPFVEDGTGRQRPRGPSKGEAGVEGPPLAKVEASATLKRRIRAKQNQQENVKFILTESDTVKRRPKAKEREAGPEPPPPLSVYHNGTGTVRRRPASEQAGPPELPPPPPPAEPPPTDLAHLPPLPPPEGEARKPAKPPVSPKPVLTQPVPKLQGSPTPTSKKVPLPGPGSPEVKRAHGTPPPVSPKPPPPPTAPKPVKAVAGLPSGSAGPSPAPSPARQPPAALAKPPGTPPSLGASPAKPPSPGAPALHVPAKPPRAAAAAAAAAAAPPAPPEGASPGDSARQKLEETSACLAAALQAVEEKIRQEDAQGPRDSAAEKSTGSILDDIGSMFDDLADQLDAMLE
B2: Peripheral plasma membrane protein CASK (Homo sapiens), O14936 (parent)
chain: MADDDVLFEDVYELCEVIGKGPFSVVRRCINRETGQQFAVKIVDVAKFTSSPGLSTEDLKREASICHMLKHPHIVELLETYSSDGMLYMVFEFMDGADLCFEIVKRADAGFVYSEAVASHYMRQILEALRYCHDNNIIHRDVKPHCVLLASKENSAPVKLGGFGVAIQLGESGLVAGGRVGTPHFMAPEVVKREPYGKPVDVWGCGVILFILLSGCLPFYGTKERLFEGIIKGKYKMNPRQWSHISESAKDLVRRMLMLDPAERITVYEALNHPWLKERDRYAYKIHLPETVEQLRKFNARRKLKGAVLAAVSSHKFNSFYGDPPEELPDFSEDPTSSGLLAAERAVSQVLDSLEEIHALTDCSEKDLDFLHSVFQDQHLHTLLDLYDKINTKSSPQIRNPPSDAVQRAKEVLEEISCYPENNDAKELKRILTQPHFMALLQTHDVVAHEVYSDEALRVTPPPTSPYLNGDSPESANGDMDMENVTRVRLVQFQKNTDEPMGITLKMNELNHCIVARIMHGGMIHRQGTLHVGDEIREINGISVANQTVEQLQKMLREMRGSITFKIVPSYRTQSSSCERDSPSTSRQSPANGHSSTNNSVSDLPSTTQPKGRQIYVRAQFEYDPAKDDLIPCKEAGIRFRVGDIIQIISKDDHNWWQGKLENSKNGTAGLIPSPELQEWRVACIAMEKTKQEQQASCTWFGKKKKQYKDKYLAKHNAVFDQLDLVTYEEVVKLPAFKRKTLVLLGAHGVGRRHIKNTLITKHPDRFAYPIPHTTRPPKKDEENGKNYYFVSHDQMMQDISNNEYLEYGSHEDAMYGTKLETIRKIHEQGLIAILDVEPQALKVLRTAEFAPFVVFIAAPTITPGLNEDESLQRLQKESDILQRTYAHYFDLTIINNEIDETIRHLEEAVELVCTAPQWVPVSWVY
partner: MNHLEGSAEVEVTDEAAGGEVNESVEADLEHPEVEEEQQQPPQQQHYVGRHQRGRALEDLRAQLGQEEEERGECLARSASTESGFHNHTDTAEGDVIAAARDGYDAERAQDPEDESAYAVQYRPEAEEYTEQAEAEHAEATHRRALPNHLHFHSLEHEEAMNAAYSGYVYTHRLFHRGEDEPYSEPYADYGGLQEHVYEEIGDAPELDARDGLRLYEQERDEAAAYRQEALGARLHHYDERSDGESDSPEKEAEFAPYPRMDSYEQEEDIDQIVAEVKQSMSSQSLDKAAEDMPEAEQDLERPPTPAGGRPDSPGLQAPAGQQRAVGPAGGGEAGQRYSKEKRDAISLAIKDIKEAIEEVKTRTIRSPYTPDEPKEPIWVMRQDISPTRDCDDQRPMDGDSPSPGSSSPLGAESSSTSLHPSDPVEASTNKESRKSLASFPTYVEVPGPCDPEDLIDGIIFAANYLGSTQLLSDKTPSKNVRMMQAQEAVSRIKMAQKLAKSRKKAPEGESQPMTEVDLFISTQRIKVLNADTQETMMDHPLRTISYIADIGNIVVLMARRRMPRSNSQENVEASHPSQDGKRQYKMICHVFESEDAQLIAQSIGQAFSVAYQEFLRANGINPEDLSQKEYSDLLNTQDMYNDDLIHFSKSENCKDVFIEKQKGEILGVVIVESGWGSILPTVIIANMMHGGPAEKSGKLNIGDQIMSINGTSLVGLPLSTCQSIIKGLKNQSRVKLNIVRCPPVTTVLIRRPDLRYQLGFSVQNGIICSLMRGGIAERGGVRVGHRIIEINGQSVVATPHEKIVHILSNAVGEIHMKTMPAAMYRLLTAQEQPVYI
B3: Peripheral plasma membrane protein CASK (Homo sapiens), O14936 (parent)
chain: B2 chain

Variants of: B1
Settings: with cskp_human CASK, O14936

effect of a mutation on the interaction | Variant
disrupting interaction | W376A
decreasing interaction | R379A
decreasing interaction | V377A
disrupting interaction | I375A

Variants of: B1
Settings: with cskp_human CASK

effect of a mutation on the interaction | Variant
disrupting interaction | L378A;R379A;K380A
disrupting interaction | I375A;W376A;V377A

Variants of: B2
Settings: with apba1_human APBA1, Q02410

effect of a mutation on the interaction | Variant
disrupting interaction | V117D
disrupting interaction | V117Q

Variants of: B3
Settings: with tiam1_human TIAM1, Q13009
Chain of tiam1_human TIAM1, Q13009 (Q13009 whole entry): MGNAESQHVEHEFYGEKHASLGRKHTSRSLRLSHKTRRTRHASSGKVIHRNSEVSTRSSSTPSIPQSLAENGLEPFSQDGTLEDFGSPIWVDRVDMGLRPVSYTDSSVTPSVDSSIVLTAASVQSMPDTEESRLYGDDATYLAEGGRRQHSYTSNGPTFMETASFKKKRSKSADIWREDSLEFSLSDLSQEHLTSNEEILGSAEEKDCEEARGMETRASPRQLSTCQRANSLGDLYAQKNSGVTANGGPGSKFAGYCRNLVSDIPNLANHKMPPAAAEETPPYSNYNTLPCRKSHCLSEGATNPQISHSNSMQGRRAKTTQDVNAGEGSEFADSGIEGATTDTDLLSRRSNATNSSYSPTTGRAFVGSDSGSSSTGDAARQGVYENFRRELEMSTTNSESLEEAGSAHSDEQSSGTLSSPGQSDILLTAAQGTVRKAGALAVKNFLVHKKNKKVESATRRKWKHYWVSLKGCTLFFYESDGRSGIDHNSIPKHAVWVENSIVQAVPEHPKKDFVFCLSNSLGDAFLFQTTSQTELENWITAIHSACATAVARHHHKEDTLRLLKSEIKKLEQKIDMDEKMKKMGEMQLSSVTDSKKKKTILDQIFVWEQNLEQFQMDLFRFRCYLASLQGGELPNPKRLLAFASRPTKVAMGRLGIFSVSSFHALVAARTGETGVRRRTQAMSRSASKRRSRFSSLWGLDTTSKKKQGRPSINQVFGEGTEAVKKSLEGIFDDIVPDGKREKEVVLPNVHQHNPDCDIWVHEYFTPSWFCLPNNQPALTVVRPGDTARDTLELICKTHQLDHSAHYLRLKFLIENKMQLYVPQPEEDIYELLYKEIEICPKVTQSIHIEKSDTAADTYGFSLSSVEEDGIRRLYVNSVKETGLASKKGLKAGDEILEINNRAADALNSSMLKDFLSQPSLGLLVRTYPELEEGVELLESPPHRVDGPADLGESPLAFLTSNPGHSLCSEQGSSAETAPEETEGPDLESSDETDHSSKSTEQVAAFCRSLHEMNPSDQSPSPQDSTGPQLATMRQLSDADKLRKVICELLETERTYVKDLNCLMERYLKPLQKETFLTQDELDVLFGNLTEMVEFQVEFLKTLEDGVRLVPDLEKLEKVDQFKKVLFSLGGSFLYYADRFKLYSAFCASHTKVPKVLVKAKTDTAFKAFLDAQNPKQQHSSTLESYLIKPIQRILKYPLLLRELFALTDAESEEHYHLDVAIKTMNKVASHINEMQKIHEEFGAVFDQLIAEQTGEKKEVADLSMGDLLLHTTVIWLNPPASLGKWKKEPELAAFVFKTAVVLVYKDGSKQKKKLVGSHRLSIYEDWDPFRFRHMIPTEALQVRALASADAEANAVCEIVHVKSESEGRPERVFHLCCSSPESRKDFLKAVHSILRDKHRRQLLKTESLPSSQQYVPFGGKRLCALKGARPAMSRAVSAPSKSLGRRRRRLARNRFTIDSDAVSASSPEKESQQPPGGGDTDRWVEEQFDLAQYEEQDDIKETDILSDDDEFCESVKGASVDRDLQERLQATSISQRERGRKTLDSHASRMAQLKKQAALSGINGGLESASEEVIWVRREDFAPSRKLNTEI

effect of a mutation on the interaction | Variant
disrupting interaction | V117Q
disrupting interaction | V117D

Variants of: B3
Settings: with cski1_human CASKIN1, Q8WXD9

effect of a mutation on the interaction | Variant
disrupting interaction | V117Q
disrupting interaction | V117D
